Laboratory results: patent US20050176118A1, “Esterases with lipase activity” (priority 2002, published 2005)

B1: MpE4WT: wild-type Myzus persicae E4 α-carboxylesterase (SEQ ID NO:3) (protein, listed as Myzus persicae)
chain: MKNTCGILLNLFLFIGCFLTCSASNTPKVQVHSGEIAGGFEYTYNGRKIYSFLGIPYASPPVQNNRFKEPQPVQPWLGVWNATVPGSACLGIEFGSGSKIIGQEDCLFLNVYTPKLPQENSAGDLMNVIVHIHGGGYYFGEGILYGPHYLLDNNDFVYVSINYRLGVLGFASTGDGVLTGNNGLKDQVAALKWIQQNIVAFGGDPNSVTITGMSAGASSVHNHLISPMSKGLFNRAIIQSGSAFCHWSTAENVAQKTKYIANLMGCPTNNSVEIVECLRSRPAKAIAKSYLNFMPWRNFPFTPFGPTVEVAGYEKFLPDIPEKLVPHDIPVLISIAQDEGLIFSTFLGLENGFNELNNNWNEHLPHILDYNYTISNENLRFKTAQDIKEFYFGDKPISKETKSNLSKMISDRSFGYGTSKAAQHIAAKNTAPVYFYEFGYSGNYSYVAFFDPKSYSRGSSPTHGDETSYVLKMDGFYVYDNEEDRKMIKTMVNIWATFIKSGVPDTENSEIWLPVSKNLADPFRFTKITQQQTFEAREQSTTGIMNFGVAYH
B2: E3WT: wild-type Lucilia cuprina E3 α-carboxylesterase (SEQ ID NO:1), baculovirus expressed (protein, listed as Lucilia cuprina)
chain: MNFNVSLMEKLKWKIKCIENKFLNYRLTTNETVVAETEYGKVKGVKRLTVYDDSYYSFEGIPYAQPPVGELRFKAPQRPTPWDGVRDCCNHKDKSVQVDFITGKVCGSEDCLYLSVYTNNLNPETKRPVLVYIHGGGFIIGENHRDMYGPDYFIKKDVVLINIQYRLGALGFLSLNSEDLNVPGNAGLKDQVMALRWIKNNCANFGGNPDNITVFGESAGAASTHYMMLTEQTRGLFHRGILMSGNAICPWANTQCQHRAFTLAKLAGYKGEDNDKDVLEFLMKAKPQDLIKLEEKVLTLEERTNKVMFPFGPTVEPYQTADCVLPKHPREMVKTAWGNSIPTMMGNTSYEGLFFTSILKQMPMLVKELETCVNFVPSELADAERTAPETLEMGAKIKKAHVTGETPTADNFMDLCSHIYFWFPMHRLLQLRFNHTSGTPVYLYRFDFDSEDLINPYRIMRSGRGVKGVSHADELTYFFWNQLAKRMPKESREYKTIERMTGIWIQFATTGNPYSNEIEGMENVSWDPIKKSDEVYKCLNISDELKMIDVPEMDKIKQWESMFEKHRDLF
B3: EST23WT: wild-type Drosophila melanogaster EST23 α-carboxylesterase (SEQ ID NO:2) (protein)
chain: MNKNLGFVERLRGRLKTIEHKVQQYRQSTNETVVADTEYGQVRGIKRLSLYDVPYFSFEGIPYAQPPVGELRFKAPQRPIPWEGVRDCSQPKDKAVQVQFVFDKVEGSEDCLYLNVYTNNVKPDKARPVMVWIHGGGFIIGEANREWYGPDYFMKEDVVLVTIQYRLGALGFMSLKSPELNVPGNAGLKDQVLALKWIKNNCASFGGDPNCITVFGESAGGASTHYMMLTDQTQGLFHRGILQSGSAICPWAYNGDITHNPYRIAKLVGYKGEDNDKDVLEFLQNVKAKDLIRVEENVLTLEERMNKIMFRFGPSLEPFSTPECVISKPPKEMMKTAWSNSIPMFIGNTSYEGLLWVPEVKLMPQVLQQLDAGTPFIPKELLATEPSKEKLDSWSAQIRDVHRTGSESTPDNYMDLCSIYYFVFPALRVVHSRHAYAAGAPVYFYRYDFDSEELIFPYRIMRMGRGVKGVSHADDLSYQFSSLLARRLPKESREYRNIERTVGIWTQFAATGNPYSEKINGMDTLTIDPVRKSDEVIKCLNISDDLKFIDLPEWPKLKVWESLYDDNKDLLF
modifications: Drosophila melanogaster

Key:
[1] = cited from earlier work
[2] = Permethrin hydrolysis, radiometric partition assay (acid-labelled substrate); format: biochemical; conditions: sequential incubation of trans permethrin with E3WT and E4 from OP resistant aphid homogenates
Experimental: Expressed enzymes were tested for permethrin hydrolytic activity using a radiometric partition assay for acid-labelled compounds, or a TLC based assay for those labelled in the alcohol moiety (Devonshire and Moores, 1982). […] The power of the analyses was increased by separating permethrin into its cis and trans isomers.
Preparative thin layer chromatography (TLC) on silica was used to separate the isomers into two enantiomer pairs: 1S/1R cis and 1S/1R trans. […] Enzyme preparations could then be assayed for the hydrolysis of each enantiomer pair.
This assay (Devonshire and Moores, 1982) is used for permethrin isomers. It relies on incubating the expressed esterase with radiolabelled substrate and then measuring the radioactive cyclopropanecarboxylate anion in the aqueous phase after extracting the unchanged substrate into organic solvent. Based on previous experience, the best extraction protocol utilises a 2:1 (by volume) mixture of methanol and chloroform. […] Subsequent addition of an excess of chloroform and buffer exceeds the capacity of the methanol to hold the phases together, so that the organic phase can be removed and the product measured in the aqueous phase. […]

[3] = Esterase activity with α-naphthyl acetate; format: biochemical; conditions: substrate α-naphthyl acetate; for Km: read-out: α-NA activity Km
[4] = Fluorometric determination of lipase activity; format: biochemical; conditions: 4-MU-palmitate 10^−4M; ± standard error of duplicate assays
From the text: A fluorogenic assay was used to measure lipase activity of insect esterases or lipases, and mutants thereof. The fluorogenic substrate provides rapid reproducible methods for measuring enzymatic activity. Fatty acid esters (acylated) of 4-methylumbelliferone fluorophors are used as substrates for the identification of lipase activity. This assay uses the fluorophore 4-methylumbelliferyl palmitate (4-MU-palmitate) (structure provided below) and is a modification of the fluorometric esterase titration assay of Devonshire et al. (2002) and the method of Hamid et al. (1994) used for the rapid characterisation and identification of Mycobacteria. [drawing 4]
4-MU-palmitate is hydrolysed by a lipase to release the fluorescent 4-methylumbelliferone (4-MU), which can be measured by a fluorimeter.
A standard curve for 4-MU is prepared in each plate alongside the titrations. 25 μL 10^−2M dMU stock (19.8 mg/10 ml in 100% ethanol) was diluted with 2.475 ml (3×825 μl) ethanol to give a 10^−4M solution. This 10^−4M solution was used to prepare a standard curve from 0 to 1.0 μM in 0.1M phosphate buffer pH 7.0 (plus 0.05% or 0.5% ultrapure Triton X-100 (TX100) if present in cell extracts). This was done by dispensing 25 μl, 20 μl, 15 μl, 10 μl, 5 μl, 0 μl (plus ethanol to 25 μl) into tubes and adding 2.475 ml phosphate buffer (or phosphate buffer containing TX100 if required), then adding 100 μl per well. This gives 0.2, 0.4, 0.6, 0.8 and 1.0 uM in 0.25% TX100.
The samples were read on a Fluorostar fluorometer (BMG LabTechnologies) alongside the following titration reactions using the basic settings: excitation—355 nm, emission—460 nm, gain—zero, 10 cycles of 180 secs with shaking before each cycle.
For the assay, 20 μl of 5×10^−4 4-MU-palmitate (in 100% acetone) was to the wells that require substrate (II & III as defined in Table 4 below) and air dried. […] Cell extracts should be added immediately before readings start.
Corrected fluorescence (Fcorrected) was calculated by the following equations. […]

[5] = Hydrolysis of Type II pyrethroid, chloroform-methanol extraction assay; format: biochemical; parameters: key: —: Not substantially different from values obtained using control cell extracts
Experimental: Since the TLC assay is more protracted than the chloroform-methanol extraction procedure, the latter (as described above for acid-labelled pyrethroids) was adopted to measure the 3-phenoxbenzoate anion produced from these substrates.
For all assays the molar amount of product formed was calculated from the known specific activity of the radiolabelled substrate. […] Assays at concentrations greater than 0.5 μM, which approximates the published aqueous solubility of permethrin, gave erratic results so precluding the measurement of Km and kcat. […] Assay conditions were therefore adjusted to measure the hydrolysis of the more-readily hydrolysed enantiomer in each pair. […] The same considerations about substrate solubility and proportionality of response to its concentration were assumed for all enzymes and substrates.
The specificity constant (ie kcat/Km) can therefore be calculated from the above equation using the initial hydrolysis rate (pmol/min, calculated from the known specific activity of the radiolabelled substrate) and the concentrations of substrate and enzyme in the assay. The diffusion-limited maximum value for a specificity constant is 10^8-10^9 M^−1sec^−1 (Stryer, 1981).

| Molecule | published solubility in aqueous solution [1] | enantiomer preference for trans permethrin [2] | α-NA activity kcat [3] | Km [3] | 4-MU-palmitate activity [4] | Specificity Constant (kcat/Km) 1R cis αR deltamethrin [5] | Specificity Constant (kcat/Km) 1R cis αS deltamethrin [5] | Specificity Constant (kcat/Km) 1S cis αR deltamethrin [5] | Specificity Constant (kcat/Km) 1S cis αS deltamethrin [5] |
| --- | --- | --- | --- | --- | --- | --- | --- | --- | --- |
| CC1(C)C(C=C(Cl)Cl)C1C(=O)OCc1cccc(Oc2ccccc2)c1 (stereo not drawn) [permethrin] | 0.5 µM |  |  |  |  |  |  |  |  |
| B1 |  | preference for the 1S trans enantiomer | 3 s⁻¹ | 28 µM | 0.1051 ± 0.0033 moles 4MU produced per sec per mole of enzyme |  |  |  |  |
| B2 |  | preference for the 1S trans enantiomer | 248 s⁻¹ | 71 µM | 0.0298 ± 0.0006^1 moles 4MU produced per sec per mole of enzyme | — | — | —^1 | — |
| B3 |  |  | 276 s⁻¹ | 82 µM | 0.0677 ± 0.0032 moles 4MU produced per sec per mole of enzyme | — | — |  |  |
